Measurements: patent US20240343803A1 (SHANDONG SIMCERE BIOPHARMACEUTICAL, published 2024)

T1: Fusion protein of extracellular domain of human TIGIT and mouse IgG2a Fc fragment (human TIGIT ECD-mFc) (human)
T1 construct: The entry includes the signal peptide (limits not recoverable) and the mouse IgG2a Fc
T1 chain: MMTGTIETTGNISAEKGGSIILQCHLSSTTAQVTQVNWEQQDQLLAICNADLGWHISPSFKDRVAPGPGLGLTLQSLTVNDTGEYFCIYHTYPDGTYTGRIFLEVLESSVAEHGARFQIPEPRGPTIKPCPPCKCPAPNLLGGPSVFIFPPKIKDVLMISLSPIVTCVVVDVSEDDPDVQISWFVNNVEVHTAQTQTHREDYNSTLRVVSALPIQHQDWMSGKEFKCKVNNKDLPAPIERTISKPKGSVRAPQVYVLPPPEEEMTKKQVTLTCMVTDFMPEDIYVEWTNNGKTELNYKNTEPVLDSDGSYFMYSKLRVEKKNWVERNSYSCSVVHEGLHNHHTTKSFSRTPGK

T2: Full-length human TIGIT on CHO-K1 cells (CHO-K1 human TIGIT) (human, UniProt Q495A1 22-244)
T2 construct: NCBI XP_024309156.1; the entry includes the signal peptide (limits not recoverable); The strain (high, medium, low) is named under assay; also called high expression strain 1D2; medium expression strain 2D10
T2 sequence: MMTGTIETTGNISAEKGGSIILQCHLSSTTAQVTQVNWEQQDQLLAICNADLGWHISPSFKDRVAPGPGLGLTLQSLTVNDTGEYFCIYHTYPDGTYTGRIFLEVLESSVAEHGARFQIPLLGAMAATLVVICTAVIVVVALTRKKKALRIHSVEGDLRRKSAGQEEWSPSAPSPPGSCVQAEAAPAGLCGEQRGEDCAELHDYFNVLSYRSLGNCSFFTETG

T3: Fusion protein of extracellular domain of human TIGIT and His-tag (human TIGIT ECD-his) (human)
T3 chain: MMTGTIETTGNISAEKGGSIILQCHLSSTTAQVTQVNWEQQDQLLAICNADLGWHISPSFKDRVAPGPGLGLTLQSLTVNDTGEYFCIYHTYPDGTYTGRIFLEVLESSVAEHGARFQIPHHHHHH


Assays:
[1] = target: T1, Fusion protein of extracellular domain …; test: ELISA, human TIGIT ECD-mFc
Description: (§1) After discarding the coating solution, the plate was added with 5% skim milk powder (Sangon Biotech, CAT #A600669-0250)-PBS, 250 μL/well, and incubated at 37° C. for 2-4 hours. […] The enzyme-labeled plate was then washed with 0.05% Tween 20-PBS for 3 times on the Microplate Washer, added with tested antibodies diluted to 13 nM with 1% BSA (diluted by 3-fold serial dilution for 12 concentration points), 50 μL/well, and incubated at 37° C. for 1.5-2 hours. The plate was washed with 0.05% Tween 20-PBS for 3 times on the Microplate Washer, then added with HRP enzyme-labeled antibodies (Merck, CAT #AP113P) diluted with 1% BSA (Sangon Biotech, CAT #A500023-0100)-PBS at a dilution ratio of 1:5000, 50 μL/well, and incubated at 37° C. for 1 hour. After washing 3 times with 0.05% Tween 20-PBS on the Microplate Washer, the plate was added with TMB chromogenic solution (KPL, CAT #52-00-03), 50 μL/well, and incubated at room temperature for 7-10 minutes. 1M HCL, 50 μL/well, was then added into the plate to terminate the reaction, and the OD450 nm was read by a microplate reader (Biotek, Powerwave HT). […] (b) The binding activity of anti-TIGIT chimeric antibodies to CHO-K1 human TIGIT (cells with high, medium and low expression levels) and CHO-KI cynomolgus monkey TIGIT detected by FACS.
(§2) The affinity of the above humanized antibodies with human TIGIT ECD-His is detected by BIAcore, and with reference to the methods of Example 4 (a), (b), and (d), the binding activity of the above humanized antibodies to human TIGIT ECD-mFc, CHO-K1 human TIGIT, CHO-K1 cynomolgus monkey TIGIT and cynomolgus monkey TIGIT ECD-mFc, and the effect of the humanized antibodies blocking the binding between human TIGIT ECD-mFc and CHO-K1 CD155 are detected, the results are shown in Table 18.

[2] = target: T4, Fusion protein of extracellular domain of cynomolgus monkey TIGIT and mouse IgG2a Fc fragment (cynomolgus … (cynomolgus monkey)); test: ELISA, cynomolgus monkey TIGIT ECD-mFc
T4 construct: The entry includes the signal peptide (limits not recoverable) and the mouse IgG2a Fc
Description: as §1, §2

[3] = target: T2, Full-length human TIGIT on CHO-K1 cells …; test: cell binding, CHO-K1 human TIGIT high expression strain
Description: (§3) The collected cells were washed once with PBS (Hyclone, CAT #SH30256), resuspended to 2×10⁵/50 μL with 1% BSA-PBS. The antibodies were diluted to 80 nM with 1% BSA-PBS (diluted by 3-fold serial dilution for 12 concentration points). The 50 μL cells were then mixed with 50 μL diluted antibodies, and then incubated at 4° C. for 60 minutes. […] After washing twice with PBS, the cell samples were resuspended with 1% BSA-PBS, 100 μL/well and then analyzed by flow cytometry (BD, Canto II). […] [0298] (c) The effect of anti-TIGIT chimeric antibodies blocking the interaction between Bio-CD155-His and CHO-K1 human TIGIT high expression cell strains detected by FACS
as §2

[4] = target: T5, Full-length cynomolgus monkey TIGIT on CHO-K1 cells (CHO-K1 cynomolgus monkey TIGIT) (cynomolgus monkey); test: cell binding, CHO-K1 cynomolgus monkey TIGIT
T5 construct: NCBI XP_015300911.1
Description: as §3, §2

[5] = target: T6, Fusion protein of extracellular domain of human TIGIT and human IgG1 Fc fragment (human TIGIT ECD-hFc) (human); test: blocking of TIGIT ECD-hFc binding to CHO-K1 CD155 cells
T6 construct: The entry includes the signal peptide (limits not recoverable) and the human IgG1 Fc
How it was run: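 Inhibition was expressed as IC50 values derived from the inhibition curves of a cell-based ELISA. CHO-K1 CD155 cells were cultured overnight, fixed, and blocked with 5% skim milk-PBS. Antibodies were first premixed for 0.5 h with human TIGIT ECD-hFc at a working concentration of 30 ng/mL, and the mixture was then added to the cells for 1.5-2 h at 37° C. Bound TIGIT was detected with HRP secondary antibody (1:5000, 37° C, 1 h) and TMB, and read as OD450 nm.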

[6] = target: T3, Fusion protein of extracellular domain …; test: BIAcore
[7] = target: T3, Fusion protein of extracellular domain …; test: BIAcore; KD ratio to TIGIT-CHI-006

T6 sequence (chain, as listed by the source limits assumed): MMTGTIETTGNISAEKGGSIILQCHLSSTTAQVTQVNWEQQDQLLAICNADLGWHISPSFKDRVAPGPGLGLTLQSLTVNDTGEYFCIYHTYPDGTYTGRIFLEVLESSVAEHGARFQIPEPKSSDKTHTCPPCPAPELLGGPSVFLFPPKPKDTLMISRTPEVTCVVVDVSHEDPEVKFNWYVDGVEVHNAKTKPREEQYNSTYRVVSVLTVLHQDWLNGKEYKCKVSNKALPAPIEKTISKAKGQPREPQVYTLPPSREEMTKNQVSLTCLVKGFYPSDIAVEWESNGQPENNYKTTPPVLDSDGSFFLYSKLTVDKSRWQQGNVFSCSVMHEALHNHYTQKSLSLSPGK
T5 sequence (chain, as listed by the source limits assumed): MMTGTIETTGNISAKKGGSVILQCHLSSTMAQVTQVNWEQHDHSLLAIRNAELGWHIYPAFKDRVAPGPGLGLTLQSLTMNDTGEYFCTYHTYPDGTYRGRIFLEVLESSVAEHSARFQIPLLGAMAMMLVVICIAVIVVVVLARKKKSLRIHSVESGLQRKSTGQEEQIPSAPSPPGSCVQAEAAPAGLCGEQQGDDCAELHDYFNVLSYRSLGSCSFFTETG

| Binder | EC50 [1] | binding result [2] | EC50 [3] | binding result [4] | IC50 [5] | Kd [6] | koff [6] | kon [6] | Fold change vs chimeric antibodies (KD) [7] | EC50 [2] | EC50 [4] |
| --- | --- | --- | --- | --- | --- | --- | --- | --- | --- | --- | --- |
| TIGIT-006-H1L2 (antibody, V domains shown, Humanized anti-TIGIT antibody) VH: EVQLQESGPGLVKPSETLSLTCAVSGYSITSDYWNWIRQPPGKGLEWIGYISYSGRTYYNPSLKSRVTISRDTSKNQFSLKLSSVTAADTAVYYCARGDYSNYGGAMYDWGQGTTVTVSS VL: DIVMTQTPLSLSVTPGQPASISCRASQGVSTTIAWYQQKPGQSPKLLIYSASYRYTGVPDRFSGSGSGTDFTLKISRVEAEDVGVYYCQQYYSSPFTFGGGTKVEIK | 0.0183 nM | no binding | 0.105 nM | no binding | 1.58 nM | 5.71 nM | 0.000666 s⁻¹ | 117000 M⁻¹ s⁻¹ | 73.8 fold | – | – |
| TIGIT-006-H2L3 (antibody, V domains shown, Humanized anti-TIGIT antibody) VH: EVQLQESGPGLVKPSETLSLTCAVSGYSMTSDYWNWIRQPPGKGLEWIGYISYSGRTYYNPSLKSRVTISRDTSKNQFSLKLSSVTAADTAVYYCARGDYSNYGGAMYDWGQGTTVTVSS VL: DIVMTQSPDSLAVSLGERATINCRASQGVSTTIAWYQQKPGQSPKLLIYSASYRYTGVPRFSGSGSGTDFTLTISSLQAEDVAVYYCQQYYSSPFTFGGGTKVEIK | 0.0103 nM | – | 0.0353 nM | – | 0.633 nM | 0.515 nM | 0.000216 s⁻¹ | 420000 M⁻¹ s⁻¹ | 6.65 fold | 24.4 nM | 0.255 nM |
| TIGIT-006-H2L1 (antibody, V domains shown, Humanized anti-TIGIT antibody) VH: EVQLQESGPGLVKPSETLSLTCAVSGYSMTSDYWNWIRQPPGKGLEWIGYISYSGRTYYNPSLKSRVTISRDTSKNQFSLKLSSVTAADTAVYYCARGDYSNYGGAMYDWGQGTTVTVSS VL: DIVMTQTPLSLSVTPGQPASISCRASQGVSTTIAWYLQKPGQSPQLLIYSASYRYTGVPDRFSGSGSGTDFTLKISRVEAEDVGVYYCQQYYSSPFTFGGGTKVEIK | 0.0106 nM | – | 0.0383 nM | – | 0.528 nM | 0.95 nM | 0.000382 s⁻¹ | 403000 M⁻¹ s⁻¹ | 12.3 fold | 2.88 nM | 0.342 nM |
| TIGIT-006-H1L3 (antibody, V domains shown, Humanized anti-TIGIT antibody) VH: EVQLQESGPGLVKPSETLSLTCAVSGYSITSDYWNWIRQPPGKGLEWIGYISYSGRTYYNPSLKSRVTISRDTSKNQFSLKLSSVTAADTAVYYCARGDYSNYGGAMYDWGQGTTVTVSS VL: DIVMTQSPDSLAVSLGERATINCRASQGVSTTIAWYQQKPGQSPKLLIYSASYRYTGVPRFSGSGSGTDFTLTISSLQAEDVAVYYCQQYYSSPFTFGGGTKVEIK | 0.0185 nM | no binding | 0.0596 nM | no binding | 1.23 nM | 2.66 nM | 0.000384 s⁻¹ | 144000 M⁻¹ s⁻¹ | 34.4 fold | – | – |

Further lines, results first:

| EC50 [1] | binding result [2] | EC50 [3] | binding result [4] | IC50 [5] | Kd [6] | koff [6] | kon [6] | Fold change vs chimeric antibodies (KD) [7] | EC50 [2] | EC50 [4] | Binder |
| --- | --- | --- | --- | --- | --- | --- | --- | --- | --- | --- | --- |
| 0.0099 nM | – | 0.0494 nM | – | 0.709 nM | 0.748 nM | 0.000208 s⁻¹ | 279000 M⁻¹ s⁻¹ | 9.66 fold | 7.44 nM | 1.38 nM | TIGIT-006-H3L2 (antibody, V domains shown, Humanized anti-TIGIT antibody) VH: EVQLQESGPGLVKPSETLSLTCAVSGYSMTSDYWNWIRQPPGKKLEWIGYISYSGRTYYNPSLKSRVTISRDTSKNQFSLKLSSVTAADTAVYYCARGDYSNYGGAMYDWGQGTTVTVSS VL: DIVMTQTPLSLSVTPGQPASISCRASQGVSTTIAWYQQKPGQSPKLLIYSASYRYTGVPDRFSGSGSGTDFTLKISRVEAEDVGVYYCQQYYSSPFTFGGGTKVEIK |
| 0.0111 nM | – | 0.0239 nM | – | 0.576 nM | 0.08 nM | 0.000184 s⁻¹ | 2.3e+06 M⁻¹ s⁻¹ | 1.03 fold | 0.0172 nM | 0.0849 nM | TIGIT-006-H5L2 (antibody, V domains shown, Humanized anti-TIGIT antibody) VH: EVQLQESGPGLVKPSETLSLTCAVSGYSMTSDYWNWIRQPPGKKLEYIGYISYSGRTYYNPSLKSRVTISRDTSKNQFSLKLSSVTAADTAVYYCARGDYSNYGGAMYDWGQGTTVTVSS VL: DIVMTQTPLSLSVTPGQPASISCRASQGVSTTIAWYQQKPGQSPKLLIYSASYRYTGVPDRFSGSGSGTDFTLKISRVEAEDVGVYYCQQYYSSPFTFGGGTKVEIK |
| 0.0108 nM | – | 0.0399 nM | – | 0.537 nM | 0.0713 nM | 0.000163 s⁻¹ | 2.29e+06 M⁻¹ s⁻¹ | 0.92 fold | 0.0182 nM | 0.162 nM | TIGIT-006-H5L1 (antibody, V domains shown, Humanized anti-TIGIT antibody) VH: EVQLQESGPGLVKPSETLSLTCAVSGYSMTSDYWNWIRQPPGKKLEYIGYISYSGRTYYNPSLKSRVTISRDTSKNQFSLKLSSVTAADTAVYYCARGDYSNYGGAMYDWGQGTTVTVSS VL: DIVMTQTPLSLSVTPGQPASISCRASQGVSTTIAWYLQKPGQSPQLLIYSASYRYTGVPDRFSGSGSGTDFTLKISRVEAEDVGVYYCQQYYSSPFTFGGGTKVEIK |
| 0.0095 nM | – | 0.0317 nM | – | 0.681 nM | 0.482 nM | 0.000176 s⁻¹ | 365000 M⁻¹ s⁻¹ | 6.23 fold | 0.779 nM | 6.29 nM | TIGIT-006-H3L3 (antibody, V domains shown, Humanized anti-TIGIT antibody) VH: EVQLQESGPGLVKPSETLSLTCAVSGYSMTSDYWNWIRQPPGKKLEWIGYISYSGRTYYNPSLKSRVTISRDTSKNQFSLKLSSVTAADTAVYYCARGDYSNYGGAMYDWGQGTTVTVSS VL: DIVMTQSPDSLAVSLGERATINCRASQGVSTTIAWYQQKPGQSPKLLIYSASYRYTGVPRFSGSGSGTDFTLTISSLQAEDVAVYYCQQYYSSPFTFGGGTKVEIK |
